From publication PMC549407 come the findings set out here.

Broadly, the stoichiometry N is the number of molecules, sites or subunits per partner or assembly.

In this assay the target is HIV-1 integrase (IN), recombinant, from the San Francisco isolate SF2 (HIV-1 (San Francisco isolate SF2)). Kind of assay: cross-linking.

Regarding “HIV-1 integrase (IN), recombinant, from the San Francisco isolate SF2 (enzyme)”, the stoichiometry N stood at 2.
